Kd data for two substances are collected here from publication PMC7784741.

Test [1] has as its target YAP-binding domain of TEAD from Anabas testudineus (residues 211-428) (Anabas testudineus). Description: SPR. Background: In SPR one partner is held on a chip, and binding of the other changes the refractive index at the surface.
Test [2] has as its target YAP-binding domain of human TEAD4, TEAD4 217-434 (human) (UniProt Q15561). Description: SPR.

Chain of YAP-binding domain of human TEAD4, TEAD4 217-434 (human) (Q15561 217-434): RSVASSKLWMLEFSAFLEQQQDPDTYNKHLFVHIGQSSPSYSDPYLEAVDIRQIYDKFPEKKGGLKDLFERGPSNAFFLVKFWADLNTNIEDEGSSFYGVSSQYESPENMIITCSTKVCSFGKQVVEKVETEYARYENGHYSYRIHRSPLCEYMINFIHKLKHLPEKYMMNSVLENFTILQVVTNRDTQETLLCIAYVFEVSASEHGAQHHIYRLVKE

Consider “synthetic peptide of the TEAD-binding domain of YAP, Anabas testudineus_2 (residues 21-60)”, for which the Kd (usually the equilibrium constant for the complex coming apart) in test [1] amounted to 60 nM.
With “synthetic peptide of the TEAD-binding domain of YAP, Anabas testudineus_1 (residues 21-59)”, the Kd in test [2] is 71 nM; in test [1] it was 99 nM.
